Source: patent publication EP0980426B1 (Genentech, Inc., dated 2004)

T1: PSTPIP, full-length, with a C-terminal FLAG epitope (murine, UniProt P97814 1-415)
T1 construct: In vitro transcribed/translated or expressed in COS cells from pRK.PIP.FLAG.C
T1 sequence: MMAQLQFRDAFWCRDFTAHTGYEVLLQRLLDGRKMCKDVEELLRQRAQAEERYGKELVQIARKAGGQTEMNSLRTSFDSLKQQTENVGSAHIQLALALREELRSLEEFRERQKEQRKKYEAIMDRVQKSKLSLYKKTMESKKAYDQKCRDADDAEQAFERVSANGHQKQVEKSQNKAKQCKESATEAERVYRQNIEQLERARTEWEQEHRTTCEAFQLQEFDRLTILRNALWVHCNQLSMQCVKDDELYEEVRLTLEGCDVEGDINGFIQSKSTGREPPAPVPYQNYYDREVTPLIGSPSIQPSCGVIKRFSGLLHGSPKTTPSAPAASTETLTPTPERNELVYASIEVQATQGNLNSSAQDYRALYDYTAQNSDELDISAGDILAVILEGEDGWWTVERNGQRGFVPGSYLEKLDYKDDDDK


Molecular target: T1, PSTPIP, full-length, with a C-terminal …
Assay: peptide competition of GST-PST-rich+CTH PTP HSCF pull-down of in vitro translated PSTPIP

lowest concentration that blocks the interaction	Binder
~800 nM	GFNLRIGRPKGPRDPPAEWT (Synthetic peptide; also called C-terminally derived PTP HSCF peptide; peptide derived from the C-terminus of PTP HSCF) [PXXP-HSCF peptide, 432GFNLRIGRPKGPRDPPAEWT451 (PTP HSCF)]
~800 nM	GFGNRFSKPKGPRNPPSAW (Synthetic peptide) [PXXP-PEP peptide, 782GFGNRFSKPKGPRNPPSAW800 (PTP PEP)]
~800 nM	GFGNRCGKPKGPRDPPSEWT (Synthetic peptide) [PXXP-PEST peptide, 761GFGNRCGKPKGPRDPPSEWT780 (PTP PEST)]
